Data on two substances can be found in IntAct's records for PubMed 8922390.

The target in test [1] is VCL, P12003-1.
For test [2], the target named is fak1_chick PTK2 (UniProt Q00944).
Sequence of fak1_chick PTK2 (Q00944 whole entry): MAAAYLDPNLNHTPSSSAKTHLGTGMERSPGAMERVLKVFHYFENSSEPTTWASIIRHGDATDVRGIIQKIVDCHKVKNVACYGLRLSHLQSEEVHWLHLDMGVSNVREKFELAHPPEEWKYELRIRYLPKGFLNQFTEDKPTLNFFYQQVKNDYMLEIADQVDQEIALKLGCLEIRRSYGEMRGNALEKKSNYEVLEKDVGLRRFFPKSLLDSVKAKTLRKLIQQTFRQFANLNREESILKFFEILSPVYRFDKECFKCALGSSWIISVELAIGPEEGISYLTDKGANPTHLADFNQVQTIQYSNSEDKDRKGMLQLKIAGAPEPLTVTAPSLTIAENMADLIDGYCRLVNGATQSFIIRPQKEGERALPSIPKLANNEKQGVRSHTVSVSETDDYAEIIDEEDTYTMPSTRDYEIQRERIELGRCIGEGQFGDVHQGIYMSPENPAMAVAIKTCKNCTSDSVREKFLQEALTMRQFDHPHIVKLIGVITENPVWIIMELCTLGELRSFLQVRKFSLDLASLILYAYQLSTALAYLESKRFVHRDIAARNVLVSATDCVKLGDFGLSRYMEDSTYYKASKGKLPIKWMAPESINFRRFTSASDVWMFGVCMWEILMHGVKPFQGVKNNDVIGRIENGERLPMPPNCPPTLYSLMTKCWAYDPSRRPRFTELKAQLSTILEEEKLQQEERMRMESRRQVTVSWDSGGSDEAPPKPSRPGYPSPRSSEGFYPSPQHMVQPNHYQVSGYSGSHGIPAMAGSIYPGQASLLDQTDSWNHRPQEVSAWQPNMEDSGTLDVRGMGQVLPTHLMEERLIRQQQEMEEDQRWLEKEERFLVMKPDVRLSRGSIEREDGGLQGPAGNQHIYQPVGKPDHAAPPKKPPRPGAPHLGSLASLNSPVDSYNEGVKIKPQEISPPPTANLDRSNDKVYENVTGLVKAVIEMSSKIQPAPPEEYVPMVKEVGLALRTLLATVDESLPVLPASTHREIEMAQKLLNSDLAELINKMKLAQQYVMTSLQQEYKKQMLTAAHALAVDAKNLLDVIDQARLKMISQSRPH

Sequence of VCL, P12003-1 (P12003 other isoform, or with tags, fused parts or gaps): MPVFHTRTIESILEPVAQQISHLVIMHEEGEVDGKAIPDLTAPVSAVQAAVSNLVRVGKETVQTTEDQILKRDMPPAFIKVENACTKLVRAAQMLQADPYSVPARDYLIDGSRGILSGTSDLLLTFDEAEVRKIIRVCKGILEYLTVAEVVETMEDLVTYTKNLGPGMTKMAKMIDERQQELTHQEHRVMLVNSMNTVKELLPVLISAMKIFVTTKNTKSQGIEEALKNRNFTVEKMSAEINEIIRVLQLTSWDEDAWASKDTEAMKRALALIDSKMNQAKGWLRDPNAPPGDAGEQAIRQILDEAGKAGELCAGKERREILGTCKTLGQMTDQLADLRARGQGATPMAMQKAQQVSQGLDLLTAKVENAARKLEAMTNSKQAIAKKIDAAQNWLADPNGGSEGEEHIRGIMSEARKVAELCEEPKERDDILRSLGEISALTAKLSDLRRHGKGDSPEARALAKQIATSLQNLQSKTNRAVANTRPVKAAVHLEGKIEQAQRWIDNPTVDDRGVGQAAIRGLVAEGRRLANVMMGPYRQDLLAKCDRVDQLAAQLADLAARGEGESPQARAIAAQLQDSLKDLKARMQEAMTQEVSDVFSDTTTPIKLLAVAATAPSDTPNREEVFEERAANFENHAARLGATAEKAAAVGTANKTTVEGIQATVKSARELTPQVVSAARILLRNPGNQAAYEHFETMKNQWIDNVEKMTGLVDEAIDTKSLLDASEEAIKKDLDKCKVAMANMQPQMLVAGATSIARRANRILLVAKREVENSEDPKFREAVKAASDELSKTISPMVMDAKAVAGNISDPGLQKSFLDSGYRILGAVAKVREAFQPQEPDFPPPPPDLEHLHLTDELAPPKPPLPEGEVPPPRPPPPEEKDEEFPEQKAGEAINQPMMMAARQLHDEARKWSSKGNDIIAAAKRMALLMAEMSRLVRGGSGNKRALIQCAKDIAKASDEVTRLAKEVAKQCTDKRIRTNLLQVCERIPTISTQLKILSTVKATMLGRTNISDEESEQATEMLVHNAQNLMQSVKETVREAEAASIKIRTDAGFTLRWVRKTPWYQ
Sequence of Paxillin (Gallus gallus (Chicken)), P49024 D146N;R147Q (P49024 whole entry D146N/R147Q): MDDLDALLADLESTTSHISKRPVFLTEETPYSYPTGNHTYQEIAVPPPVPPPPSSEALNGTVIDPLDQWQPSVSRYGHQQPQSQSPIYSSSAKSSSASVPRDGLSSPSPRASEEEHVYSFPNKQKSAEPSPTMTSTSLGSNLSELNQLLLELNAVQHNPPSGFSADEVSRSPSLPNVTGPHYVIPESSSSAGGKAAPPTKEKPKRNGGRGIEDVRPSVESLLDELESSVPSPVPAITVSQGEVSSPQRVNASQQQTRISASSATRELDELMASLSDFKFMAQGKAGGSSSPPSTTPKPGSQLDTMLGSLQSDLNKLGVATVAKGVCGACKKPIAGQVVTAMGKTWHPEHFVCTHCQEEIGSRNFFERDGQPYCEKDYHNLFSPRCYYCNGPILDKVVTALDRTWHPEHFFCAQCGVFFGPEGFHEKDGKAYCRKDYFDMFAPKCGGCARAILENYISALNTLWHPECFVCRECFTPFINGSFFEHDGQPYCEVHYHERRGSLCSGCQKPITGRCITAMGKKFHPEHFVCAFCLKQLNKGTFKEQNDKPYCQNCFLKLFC
Sequence of Paxillin (Gallus gallus (Chicken)), P49024 E151Q (P49024 whole entry E151Q): as the sequence (P49024 whole entry D146N/R147Q) above, with N146D, Q147R, E151Q counted along it

“Paxillin (Gallus gallus (Chicken)), P49024 D146N;R147Q”: the “effect of a mutation on the interaction” value in test [1] and in test [2] was “decreasing interaction” in each case.

With “Paxillin (Gallus gallus (Chicken)), P49024 E151Q”, the “effect of a mutation on the interaction” value in test [1] is “decreasing interaction”.
